# Like-named read-outs stand apart in the source and are kept apart here.
# Assays:
# [1] = biological target: NaChBac (Bacillus halodurans); experiment: cryo-EM structure
# [2] = biological target: NaChBac (Bacillus halodurans); experiment: cryo-EM structure; remark: listed apart in the source
substance,measurement,setting,value
NaChBac (natural protein),stoichiometry N,[1],4
same,stoichiometry N,[2],4

# From publication doi:10.1101/2020.04.16.045674
